Positions count from the first letter of the chain named. Like-named read-outs stand apart in the source and are kept apart here.

The nature of series [1]: Midpoint potential determination, xanthine/xanthine oxidase reducing system. The format is physicochemical, Escherichia coli. Conditions: two-electron, pH 7.2, 25 °C, reference dye phenosafranine.
The conditions of series [2]: pH 7.2, 25 °C; cited from earlier work.

B1: Phe223Leu (protein, UniProt P0AEZ1 1-296, looked up, variant F223L)
5,10-methylenetetrahydrofolate …: MSFFHASQRDALNQSLAEVQGQINVSFEFFPPRTSEMEQTLWNSIDRLSSLKPKFVSVTYGANSGERDRTHSIIKGIKDRTGLEAAPHLTCIDATPDELRTIARDYWNNGIRHIVALRGDLPPGSGKPEMYASDLVTLLKEVADFDISVAAYPEVHPEAKSAQADLLNLKRKVDAGANRAITQFFFDVESYLRFRDRCVSAGIDVEIIPGILPVSNFKQAKKLADMTNVRIPAWMAQMFDGLDDDAETRKLVGANIAMDMVKILSREGVKDFHFYTLNRAEMSYAICHTLGVRPGL
Take B1: the “Midpoint Potential” value in series [1] was −240 ± 3 mV.

B2: Wild-type: wild-type histidine-tagged E. coli methylenetetrahydrofolate reductase (protein, UniProt P0AEZ1 1-296, looked up)
5,10-methylenetetrahydrofolate …: B1 5,10-methylenetetrahydrofolate … with L223F
modifications: histidine tag
Take B2: the “Midpoint Potential” value in series [2] is on record as −237 ± 4 mV.

B3: Phe223Ala: Phe223Ala mutant of histidine-tagged E. coli methylenetetrahydrofolate reductase (protein, UniProt P0AEZ1 1-296, looked up, variant F223A)
5,10-methylenetetrahydrofolate …: B1 5,10-methylenetetrahydrofolate … with L223A
modifications: histidine tag
Turning to B3, the “Midpoint Potential” value in series [1] is recorded as −236 ± 3 mV.

The values are drawn from PMC2805098 (Biochemistry, 2009).
